Assay results published in US20230087785A1, “Leucine-Rich Repeat Kinase 2 Allosteric Modulators” (VIB VZW, priority 2020, published 2023).

B1: Nb1 (CA12610) (VHH)
VHH: QVQLVESGGGLVQAGGSLRLSCVASGRIFSGNAMGWYRQAPGRQRELVAGITNGGYTNYRQFVKGRFTISRDNAKRTVYLQMNSLKPEDTAVYYCNALDREARQVDYWGQGTQVTVSS
B2: Nb6 (CA12618) (VHH)
VHH: QVQLVESGGGLVQAGGSLRLSCAASGSIFSPTAMGWYRQAPGKERELVAGITSGGYTNYRNFARGRFTISRDNAKKTVYLQMNSLNPEDTAVYYCNTLTISWSWGQGTQVTVSS
B3: Nb23 (CA13612) (VHH)
VHH: QVQLVESGGGLVQAGGSLRLSCAASGRTFSRYTMGWFRQAPGKDREFVARITTSGAVTTYADSAKGRFTISRDNAKNTVYLQMNTLKPEDTAVYYCAAGQGQLSSQSRFVDYWGQGTQVTVSS
B4: Nb40 (CA14135) (VHH)
VHH: QVQLVESGGGLVQPGGSLRLSCVASGTIYAINRMGWYRQAPGKQRELVALITLGGGTNYGDSVKGRFTISRDNAKNTGYLQMNSLKPEDTAVYYCKVESSGYTDVFWGQGTQVTVSS
notes: biotinylated form used as trapping agent in BLI
B5: Nb42 (CA14259) (VHH)
VHH: QVQLVESGGGLVQAGGSLRLSCAASGDVNYAVGWFRQAPRKEREFVAAINWRGDNTDYTDSVKGRFTISRDNAKNTVYLQMNSLKPEDTAVYYCAAKSAPYWYSDIAPDYWGQGTQVTVSS
notes: biotinylated form used as trapping agent in BLI of Nb40

Columns and labels:
[1] = biological target: T1, Full-length human Leucine-rich repeat kinase 2 (LRRK2), N-terminal Strep/Flag (SF) tagged (human, UniProt Q5S007 1-2527); assay: BLI; Nb on LRRK2 trapped on streptavidin sensor via biotinylated Nb40; steady-state fit
T1 construct: Purified from HEK293T cells in presence of GDP or GTPγS; also called FL LRRK2; FL-LRRK2
Description: (§1) To determine the binding affinity (dissociation constant KD) of the ten Nbs for LRRK2, two methods were used in parallel: microscale thermophoresis (MST) and bio-layer interferometry (BLI). For the MST experiment, we site-specifically labeled the ten Nbs with a m-TAM RA fluorophore at its C-terminus, using sortase-mediated coupling, and then titrated increasing amounts of full-length LRRK2 to these Nbs (FIGS. 13A-13E).
(§2) Biolayer interferometry (BLI) measurements were performed using an Octet Red96 (Forte Bio, Inc.) system in a buffer containing 50 mM HEPES pH 8.0, 150 mM NaCl, 10 mM MgCl₂, 5% glycerol, 0.1% BSA, 0.05% Tween, at 25° C. and with shaking speed 1000 rpm. […] The biotinylated Nbs were first loaded on pre-equilibrated SA biosensors at a concentration of 5 μg/mL. This Nb-loaded sensor was then used to trap FL-LRRK2 from a 50 nM LRRK2 solution. […] All experiments were performed in triplicate.

[2] = biological target: T1, Full-length human Leucine-rich repeat …; assay: ELISA titration on coated LRRK2, Nb detected via its C-terminal EPEA tag, A405 read at 10 h
Description: (§3) LRRK2 was coated in the wells of the ELISA plate and the ELISA signal for a dilution series of the respective Nbs (detected via their C-terminal EPEA-tag) is plotted in function of the Nb concentration. […] A “no antigen control”, where no LRRK2 was coated on the bottom of the well, is also included.
(§4) Detection of Nb binding was performed using the C-terminal EPEA tag of the Nbs as described before, resulting in a dose response titration curve reflecting an apparent affinity of the Nbs. […] A “no antigen control”, where no LRRK2 was coated on the bottom of the well, was also included.

[3] = biological target: T1, Full-length human Leucine-rich repeat …; assay: cell-based or functional assay
[4] = biological target: T1, Full-length human Leucine-rich repeat …; assay: kinase kinetics (PhosphoSens, varied ATP), global fit to mixed inhibition; ATP-bound LRRK2; enzyme kinetics, mixed inhibition fit; ATP-bound LRRK2
Description: (§5) Full Michaelis-Menten curves (relative velocity versus [ATP]) in presence of different Nb concentrations were collected at 30° C. in a buffer consisting of 50 mM HEPES pH 7.5, 0.1% Brij-35, 50 mM NaCl, 10 mM MgCl₂ and […], using a fixed concentration of AQT0615 (10 μM) and varying concentrations of ATP. The LRRK2 concentration was chosen such that initial rates (linear fluorescence versus time curves) were obtained, and LRRK2, ATP and the Nbs were preincubated at 4° C. for 30 min prior to starting the reaction by adding the peptide substrate. The Michaelis-Menten curves for the different Nb concentrations were globally fit on a mixed-inhibition model using GraphPad Prism, according to the equation: […]

[5] = biological target: T1, Full-length human Leucine-rich repeat …; assay: MST; LRRK2 titrated to m-TAMRA-labelled Nb, 500 µM GDP
Description: (§6) Microscale thermophoresis (MST) experiments were performed for determining equilibrium binding affinities (KD) of Nbs binding to FL-LRRK2. Therefore, Nb were site-specifically labelled at their C-terminus with m-TAMRA, using Sortase-mediated peptide exchange. The Nbs were recloned into a pHEN29 vector which is subsequently used to express and purify the Nbs with a C-terminal LPETGG-His₆-EPEA tag. Exchange of the latter peptide with an m-TAMRA-labeled GGGYK peptide (GenicBio, Shanghai, China) was performed using Sortase, and unlabeled Nb and unincorporated peptide were removed using a Ni-NTA and SEC purification step, respectively. […] After incubation at 4° C. for 30 mins, samples were loaded in capillaries and measurements were performed at 25° C. using 50-70% LED power and 80% laser intensity (laser on-time: 30 s, laser off-time: 5 s). All experiments were performed in triplicate.

[6] = biological target: T1, Full-length human Leucine-rich repeat …; assay: kinase kinetics (PhosphoSens, varied ATP), global fit to mixed inhibition; affinity for apo-LRRK2; enzyme kinetics, mixed inhibition fit; apo-LRRK2
Description: as §5

[7] = biological target: T2, LRRK2 Roc domain construct (human, UniProt Q5S007 1329-1520); assay: ELISA, antigen coated on the plate, purified Nb detected via its EPEA tag
T2 construct: not shown: N-terminal His6-tag of pET-28a
T2 sequence: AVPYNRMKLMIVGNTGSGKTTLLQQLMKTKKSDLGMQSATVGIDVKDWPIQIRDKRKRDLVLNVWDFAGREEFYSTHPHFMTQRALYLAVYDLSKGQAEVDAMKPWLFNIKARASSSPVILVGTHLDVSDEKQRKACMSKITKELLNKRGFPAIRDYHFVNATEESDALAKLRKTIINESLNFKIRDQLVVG
Outline: (§7)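 The RocCOR, Roc, COR-B and kinase-WD40 constructs were coated side by side on one ELISA plate. Binding of each purified nanobody to every coated construct was then detected.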

[8] = biological target: T3, LRRK2 kinase-WD40 domain construct (human, UniProt Q5S007 1876-2527); assay: as above
T3 construct: also called K-WD40; not shown: N-terminal His-tag (pFastBac)
T3 sequence: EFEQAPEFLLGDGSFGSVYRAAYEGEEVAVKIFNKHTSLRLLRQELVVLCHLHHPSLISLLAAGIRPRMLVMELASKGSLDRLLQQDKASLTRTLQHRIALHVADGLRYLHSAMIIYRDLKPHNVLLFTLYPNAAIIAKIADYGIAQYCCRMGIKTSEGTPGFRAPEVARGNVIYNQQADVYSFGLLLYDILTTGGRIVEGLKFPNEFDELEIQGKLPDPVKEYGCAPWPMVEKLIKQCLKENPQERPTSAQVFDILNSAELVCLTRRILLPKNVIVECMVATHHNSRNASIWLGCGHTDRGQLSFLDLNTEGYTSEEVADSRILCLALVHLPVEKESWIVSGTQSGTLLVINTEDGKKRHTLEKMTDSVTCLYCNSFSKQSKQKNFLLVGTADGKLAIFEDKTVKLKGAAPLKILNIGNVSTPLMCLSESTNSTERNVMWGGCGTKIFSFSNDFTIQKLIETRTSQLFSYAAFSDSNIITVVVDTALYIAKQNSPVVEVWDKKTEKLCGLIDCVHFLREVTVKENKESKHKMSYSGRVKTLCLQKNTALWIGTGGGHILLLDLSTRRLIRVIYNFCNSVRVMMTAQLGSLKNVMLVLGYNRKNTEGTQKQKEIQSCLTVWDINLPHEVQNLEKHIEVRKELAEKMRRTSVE
Outline: as §7

[9] = biological target: T1, Full-length human Leucine-rich repeat …; assay: ELISA titration on coated LRRK2, Nb detected via its C-terminal EPEA tag, A405 read at 0.5 h
Description: as §3, §4

[10] = biological target: T1, Full-length human Leucine-rich repeat …; assay: kinase kinetics (PhosphoSens, varied ATP), global fit to mixed inhibition; affinity for apo-LRRK2; enzyme kinetics, mixed inhibition fit; apo (non-ATP-bound) LRRK2
Description: as §5

[11] = biological target: T1, Full-length human Leucine-rich repeat …; assay: BLI; Nb on LRRK2 trapped on streptavidin sensor via biotinylated Nb40; steady-state fit; BLI; LRRK2 trapped on the sensor via biotinylated Nb40
Description: as §1, §2

[12] = biological target: T4, LRRK2 RocCOR domain construct (human, UniProt Q5S007 1334-1840); assay: ELISA, antigen coated on the plate, purified Nb detected via its EPEA tag
T4 construct: A second construct (residues 1293-1840, N-terminal His6-MBP) was used in certain screening experiments; not shown: N-terminal Twin-Strep-tag; C-terminal His10-tag
T4 sequence: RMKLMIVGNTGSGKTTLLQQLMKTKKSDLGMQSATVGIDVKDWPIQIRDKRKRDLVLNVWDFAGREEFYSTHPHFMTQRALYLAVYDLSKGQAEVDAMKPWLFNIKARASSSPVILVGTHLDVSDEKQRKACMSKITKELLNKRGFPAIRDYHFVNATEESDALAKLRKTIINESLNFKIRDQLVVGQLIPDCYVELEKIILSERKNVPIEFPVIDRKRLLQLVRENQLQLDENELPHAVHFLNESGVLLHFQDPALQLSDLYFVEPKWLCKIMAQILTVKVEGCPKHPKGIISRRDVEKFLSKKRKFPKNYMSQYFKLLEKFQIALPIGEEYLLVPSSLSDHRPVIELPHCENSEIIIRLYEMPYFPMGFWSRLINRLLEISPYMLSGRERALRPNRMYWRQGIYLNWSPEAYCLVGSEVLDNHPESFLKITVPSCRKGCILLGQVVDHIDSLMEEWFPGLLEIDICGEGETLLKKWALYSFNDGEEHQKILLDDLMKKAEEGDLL
Outline: as §7

[13] = biological target: T5, LRRK2 COR-B construct (C-terminal part of the COR domain), His6-MBP tagged (human, UniProt Q5S007 1672-1840); assay: as above
T5 construct: also called (MBP-)COR-B; not shown: N-terminal His6-MBP-tag of pDEST-566
Outline: as §7

[14] = biological target: T1, Full-length human Leucine-rich repeat …; assay: BLI; Nb on LRRK2 trapped on streptavidin sensor via biotinylated Nb42; steady-state fit
Description: as §1, §2

[15] = biological target: T1, Full-length human Leucine-rich repeat …; assay: MST; LRRK2 titrated to m-TAMRA-labelled Nb, in presence of GTPγS instead of GDP; MST in presence of GTPγS instead of GDP
Description: as §6

Binder | Kd [1] [nM] | EC50 (read off the curve) [2] [nM] | IC50 of in vitro LRRK2 kinase activity (AQT0615 peptide, PhosphoSens, 1 mM ATP) [3] [nM] | Ki [4] [nM] | Kd [5] [nM] | Ki [6] [nM] | binding result [7] | binding result [8] | EC50 (read off the curve) [9] [nM] | Ki [10] [nM] | Kd [11] [nM] | binding result [12] | binding result [13] | Kd [14] [nM] | Kd [15] [nM]
B1 | 114 | ~10 | 8000 | 30000 | 91 | 16000 | no binding (tested: not given) | no binding (tested: not given) |  |  |  |  |  |  | 
B2 | 7 |  | 14000 | 8000 | 83 | 5000 | no binding (tested: not given) | no binding (tested: not given) | ~5 |  |  |  |  |  | 
B3 |  |  | ~65000 | 66000 |  |  | no binding (tested: not given) |  |  | 9000 | 65 | no binding (tested: not given) | no binding (tested: not given) |  | 
B4 |  |  |  |  | 26 |  | no binding (tested: not given) |  |  |  |  | no binding (tested: not given) | no binding (tested: not given) | 41 | 
B5 | 82 |  |  |  |  |  |  | no binding (tested: not given) |  |  |  | no binding (tested: not given) | no binding (tested: not given) |  | 94
